Target: HER2 (human (endogenous in BT-474, SK-BR-3, MDA-MB-361)) (UniProt P04626)
Test: flow cytometry on cells; cell-based saturation assay: 3x10^5 BT-474 cells with increasing concentration of DyLight-488-labeled Affibody in PBS with 2% FBS, on ice, one hour; non-specific binding subtracted; three independent experiments

- Kd: 3.66 nM
Substance: Z_(HER2)-GS-Cys labeled with DyLight-488 (designed binder)
